Test results from US20200254065A1, “LONG-ACTING GLP-2 ANALOGS” (OPKO Biologics Ltd., priority 2019, published 2020).
Square brackets hold non-standard residues; d marks the D form. Nle = CCCC[C@H](N)C(=O)O

T1: GLP-2 receptor (UniProt O95838 1-553, limits assumed)
T1 sequence (looked up): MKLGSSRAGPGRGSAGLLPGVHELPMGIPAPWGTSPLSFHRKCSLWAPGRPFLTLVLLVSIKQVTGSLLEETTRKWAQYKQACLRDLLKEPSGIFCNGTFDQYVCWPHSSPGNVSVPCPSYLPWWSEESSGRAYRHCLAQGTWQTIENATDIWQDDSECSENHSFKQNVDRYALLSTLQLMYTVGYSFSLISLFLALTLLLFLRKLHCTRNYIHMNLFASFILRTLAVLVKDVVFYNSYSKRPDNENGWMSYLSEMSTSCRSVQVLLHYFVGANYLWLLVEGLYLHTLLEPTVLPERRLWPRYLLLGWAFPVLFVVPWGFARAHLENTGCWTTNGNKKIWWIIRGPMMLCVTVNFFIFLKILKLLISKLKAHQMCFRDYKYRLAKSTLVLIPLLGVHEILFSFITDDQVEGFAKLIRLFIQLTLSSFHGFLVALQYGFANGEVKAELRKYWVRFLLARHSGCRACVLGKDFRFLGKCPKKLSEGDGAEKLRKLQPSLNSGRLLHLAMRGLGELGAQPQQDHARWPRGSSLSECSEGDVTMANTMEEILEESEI


These binders were tested against T1, GLP-2 receptor (assay: cell-based or functional assay).

| Binder | EC50 Ratio to Teduglutide, CBA | EC50 [nM], Cell Based Assay (CBA), cells overexpressing the GLP-2 receptor |
| --- | --- | --- |
| H-HGEGSFSDE[Nle][dF]TILDNLAARDFINWLIQTKITD-NH2 (SMILES CCCC[C@H](NC(=O)[C@H](CCC(=O)O)NC(=O)[C@H](CC(=O)O)NC(=O)[C@H](CO)NC(=O)[C@H](Cc1ccccc1)NC(=O)[C@H](CO)NC(=O)CNC(=O)[C@H](CCC(=O)O)NC(=O)CNC(=O)[C@@H](N)Cc1c[nH]cn1)C(=O)N[C@H](Cc1ccccc1)C(=O)N[C@H](C(=O)N[C@H](C(=O)N[C@@H](CC(C)C)C(=O)N[C@@H](CC(=O)O)C(=O)N[C@@H](CC(N)=O)C(=O)N[C@@H](CC(C)C)C(=O)N[C@@H](C)C(=O)N[C@@H](C)C(=O)N[C@@H](CCCNC(=N)N)C(=O)N[C@@H](CC(=O)O)C(=O)N[C@@H](Cc1ccccc1)C(=O)N[C@H](C(=O)N[C@@H](CC(N)=O)C(=O)N[C@@H](Cc1c[nH]c2ccccc12)C(=O)N[C@@H](CC(C)C)C(=O)N[C@H](C(=O)N[C@@H](CCC(N)=O)C(=O)N[C@H](C(=O)N[C@@H](CCCCN)C(=O)N[C@H](C(=O)N[C@H](C(=O)N[C@@H](CC(=O)O)C(N)=O)[C@@H](C)O)[C@@H](C)CC)[C@@H](C)O)[C@@H](C)CC)[C@@H](C)CC)[C@@H](C)CC)[C@@H](C)O) [GLP-2 Variant #2] | 6.4 fold | 36.1 nM |
| H-HGEGSFSDE[Nle]NTILDLLAARDFINWLIQTKITD-OH (SMILES CCCC[C@H](NC(=O)[C@H](CCC(=O)O)NC(=O)[C@H](CC(=O)O)NC(=O)[C@H](CO)NC(=O)[C@H](Cc1ccccc1)NC(=O)[C@H](CO)NC(=O)CNC(=O)[C@H](CCC(=O)O)NC(=O)CNC(=O)[C@@H](N)Cc1c[nH]cn1)C(=O)N[C@@H](CC(N)=O)C(=O)N[C@H](C(=O)N[C@H](C(=O)N[C@@H](CC(C)C)C(=O)N[C@@H](CC(=O)O)C(=O)N[C@@H](CC(C)C)C(=O)N[C@@H](CC(C)C)C(=O)N[C@@H](C)C(=O)N[C@@H](C)C(=O)N[C@@H](CCCNC(=N)N)C(=O)N[C@@H](CC(=O)O)C(=O)N[C@@H](Cc1ccccc1)C(=O)N[C@H](C(=O)N[C@@H](CC(N)=O)C(=O)N[C@@H](Cc1c[nH]c2ccccc12)C(=O)N[C@@H](CC(C)C)C(=O)N[C@H](C(=O)N[C@@H](CCC(N)=O)C(=O)N[C@H](C(=O)N[C@@H](CCCCN)C(=O)N[C@H](C(=O)N[C@H](C(=O)N[C@@H](CC(=O)O)C(=O)O)[C@@H](C)O)[C@@H](C)CC)[C@@H](C)O)[C@@H](C)CC)[C@@H](C)CC)[C@@H](C)CC)[C@@H](C)O) [GLP-2 Variant #6] | 3.8 fold | 21.7 nM |
| H-HGEGSFSDE[Nle]NTILDYLAARDFINWLIQTKITD-OH (SMILES CCCC[C@H](NC(=O)[C@H](CCC(=O)O)NC(=O)[C@H](CC(=O)O)NC(=O)[C@H](CO)NC(=O)[C@H](Cc1ccccc1)NC(=O)[C@H](CO)NC(=O)CNC(=O)[C@H](CCC(=O)O)NC(=O)CNC(=O)[C@@H](N)Cc1c[nH]cn1)C(=O)N[C@@H](CC(N)=O)C(=O)N[C@H](C(=O)N[C@H](C(=O)N[C@@H](CC(C)C)C(=O)N[C@@H](CC(=O)O)C(=O)N[C@@H](Cc1ccc(O)cc1)C(=O)N[C@@H](CC(C)C)C(=O)N[C@@H](C)C(=O)N[C@@H](C)C(=O)N[C@@H](CCCNC(=N)N)C(=O)N[C@@H](CC(=O)O)C(=O)N[C@@H](Cc1ccccc1)C(=O)N[C@H](C(=O)N[C@@H](CC(N)=O)C(=O)N[C@@H](Cc1c[nH]c2ccccc12)C(=O)N[C@@H](CC(C)C)C(=O)N[C@H](C(=O)N[C@@H](CCC(N)=O)C(=O)N[C@H](C(=O)N[C@@H](CCCCN)C(=O)N[C@H](C(=O)N[C@H](C(=O)N[C@@H](CC(=O)O)C(=O)O)[C@@H](C)O)[C@@H](C)CC)[C@@H](C)O)[C@@H](C)CC)[C@@H](C)CC)[C@@H](C)CC)[C@@H](C)O) [GLP-2 Variant #7] | 3 fold | 17.2 nM |
| H-HGEGSFSDE[Nle][dH]TILDNLAARDFINWLIQTKITD-NH2 (SMILES CCCC[C@H](NC(=O)[C@H](CCC(=O)O)NC(=O)[C@H](CC(=O)O)NC(=O)[C@H](CO)NC(=O)[C@H](Cc1ccccc1)NC(=O)[C@H](CO)NC(=O)CNC(=O)[C@H](CCC(=O)O)NC(=O)CNC(=O)[C@@H](N)Cc1c[nH]cn1)C(=O)N[C@H](Cc1c[nH]cn1)C(=O)N[C@H](C(=O)N[C@H](C(=O)N[C@@H](CC(C)C)C(=O)N[C@@H](CC(=O)O)C(=O)N[C@@H](CC(N)=O)C(=O)N[C@@H](CC(C)C)C(=O)N[C@@H](C)C(=O)N[C@@H](C)C(=O)N[C@@H](CCCNC(=N)N)C(=O)N[C@@H](CC(=O)O)C(=O)N[C@@H](Cc1ccccc1)C(=O)N[C@H](C(=O)N[C@@H](CC(N)=O)C(=O)N[C@@H](Cc1c[nH]c2ccccc12)C(=O)N[C@@H](CC(C)C)C(=O)N[C@H](C(=O)N[C@@H](CCC(N)=O)C(=O)N[C@H](C(=O)N[C@@H](CCCCN)C(=O)N[C@H](C(=O)N[C@H](C(=O)N[C@@H](CC(=O)O)C(N)=O)[C@@H](C)O)[C@@H](C)CC)[C@@H](C)O)[C@@H](C)CC)[C@@H](C)CC)[C@@H](C)CC)[C@@H](C)O) [GLP-2 Variant #3] | 2.5 fold | 14.2 nM |
| H-HGEGSFSDE[Nle]NTILDYLAARDFINWLIQTKITD-NH2 (SMILES CCCC[C@H](NC(=O)[C@H](CCC(=O)O)NC(=O)[C@H](CC(=O)O)NC(=O)[C@H](CO)NC(=O)[C@H](Cc1ccccc1)NC(=O)[C@H](CO)NC(=O)CNC(=O)[C@H](CCC(=O)O)NC(=O)CNC(=O)[C@@H](N)Cc1c[nH]cn1)C(=O)N[C@@H](CC(N)=O)C(=O)N[C@H](C(=O)N[C@H](C(=O)N[C@@H](CC(C)C)C(=O)N[C@@H](CC(=O)O)C(=O)N[C@@H](Cc1ccc(O)cc1)C(=O)N[C@@H](CC(C)C)C(=O)N[C@@H](C)C(=O)N[C@@H](C)C(=O)N[C@@H](CCCNC(=N)N)C(=O)N[C@@H](CC(=O)O)C(=O)N[C@@H](Cc1ccccc1)C(=O)N[C@H](C(=O)N[C@@H](CC(N)=O)C(=O)N[C@@H](Cc1c[nH]c2ccccc12)C(=O)N[C@@H](CC(C)C)C(=O)N[C@H](C(=O)N[C@@H](CCC(N)=O)C(=O)N[C@H](C(=O)N[C@@H](CCCCN)C(=O)N[C@H](C(=O)N[C@H](C(=O)N[C@@H](CC(=O)O)C(N)=O)[C@@H](C)O)[C@@H](C)CC)[C@@H](C)O)[C@@H](C)CC)[C@@H](C)CC)[C@@H](C)CC)[C@@H](C)O) [GLP-2 Variant #5] | 2.4 fold | 13.6 nM |
